Measured values: PMC9817140

Each sequence was assayed against T1, RpoN (sigma-54) (Vibrio parahaemolyticus RIMD2210633) (UniProt Q87LE2) (assay: EMSA). Conditions: EMSA: 20 µl with 10 ng FAM probe, 4 µl EMSA buffer (10 mM NaCl, 0.1 mM DTT, 0.1 mM EDTA, 10 mM Tris pH 7.4), 1 µl poly-dIdC, 25 °C 0.5 h, 6% native PAGE.
T1 sequence: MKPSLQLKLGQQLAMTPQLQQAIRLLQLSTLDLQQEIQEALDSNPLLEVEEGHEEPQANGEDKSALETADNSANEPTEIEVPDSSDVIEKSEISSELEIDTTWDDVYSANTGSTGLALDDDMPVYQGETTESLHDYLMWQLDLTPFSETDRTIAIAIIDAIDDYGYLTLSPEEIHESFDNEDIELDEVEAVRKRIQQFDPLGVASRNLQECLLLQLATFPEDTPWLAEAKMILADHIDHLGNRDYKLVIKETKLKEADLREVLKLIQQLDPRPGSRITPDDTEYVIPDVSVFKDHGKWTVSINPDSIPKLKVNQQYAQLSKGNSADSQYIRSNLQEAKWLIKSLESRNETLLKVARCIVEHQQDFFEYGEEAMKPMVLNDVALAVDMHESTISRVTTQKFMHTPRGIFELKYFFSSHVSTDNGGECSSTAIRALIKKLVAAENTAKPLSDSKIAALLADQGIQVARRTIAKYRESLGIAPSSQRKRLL

Row | Sequence | binding
1 | TGCCTGCAGGTCGACGATCTTGGCTTGATAACATCATGACATTCATCTGATGCTTAGCCTGAAAACACCTCAGTTCAGGCTAAGCATGCTTTGATCTCTGGTTTGCCGCTGTTGCCGCCACATGGATCAAAATCTTGCCTCCCTTTGCAGTTTTTTTTCATTGAATATCCTTCTTGATTGCCTTTAATCTCATTCAAGTTTTTGATAAATAAGTTTATTTTTATTTTGGCATAACTATTGCTTTTACTCCGGAAGTACAGAGACTTTTTTGGAGTAA (double strand) [flgF promoter] | no binding
2 | TGCCTGCAGGTCGACGATTCTGTAAATAATAATTGAGAGTTGCTTCATAATAACTATTATTAGTTATAAATATCGCTTAATTTAAATCTAATTTAAAGATATAAAGGAGCGTATTTAAAATGAAGTTTTTGATACATCAATCATTAATTATCATTATTCAGATAATTTAATTAATACGAAATATGTCAATTAATAATGCTCTAGGAGATTAGC (double strand) [hcp2 promoter] | binds
3 | TGCCTGCAGGTCGACGATCCTTGTTTTATCCCATGGTCAGCGGGCGCGAAGGCGGCACCGGACTTGGGTTGTCCATCTCACAAAATTTGATCGACCAGCACAACGGAAAAATCGACGTTGAAAGCTGGCCTGGCCACACCACTTTTACAATTTATTTGCCGATTTGACCTCACGAATGGATTTCGTTGAGCGCCAATTTACGGTTTTTGCTGCAAGGATTAGTAC (double strand) [VP0118 promoter] | no binding
4 | TGCCTGCAGGTCGACGATGAGCTGCTGATATGCTGGGTATGCGCCGTACAACGTTGGTTGAGAAAATGCGCAAGTATAATTTGCAGCGTTAGATCGAGCTTCAGTTCAATCACAAAAGTTATCTTTTCTGACATTAAAATCAGACATTTCTCGGTGTCAACTTATTGTCGATAACATAACGTCATGATAAATATAAAAATAGCTTGGTACGCTAATTGCTTACCAAGCTATTTTACTTTTTAGTGGCGATATTTCGACAGGCAGTGA (double strand) [flaL promoter] | no binding
5 | TGCCTGCAGGTCGACGATTCTCTTTGCCTTAATCTTATGCCGATCAAAGCACATCGGAAACTAACGCTAAAACGGTAGCAAACCCCAACTTAGTGGAATGCAAGTCACTAAAAATCATCAATTTTGATCTTTTTTAGAAAATTTTTAATTTTCAAATTAATCATTAGTGGCAAGCGACCGCCTCTAGTTAGTGACTAGGGAATATCCCAAGGCCTGAAAGAAATAGTGATAAACTAAGGAGACTAAG (double strand) [lafA promoter] | binds
6 | TGCCTGCAGGTCGACGATTTTTGGACTCAACGTAACATTTTTCAATTTTGCCTCTCGTCACATCGCGTGAGTATCGAGTACAAAAATAAAATTTAATGTTCACCACATCCTTGTCGCCTATTGGATTTAGAACATGATGATGAGGACCACAGC (double strand) [flgM promoter] | no binding
7 | TGCCTGCAGGTCGACGATCTGCAAGTGAAGCAGAAAATCGAAAGTATGTGACCTTTTGGGGTTGCCGCGTACGCGAATCATTGAGGCTTGCCATCGTGCAAGCCTTTATTTTACCTGAATTTACTACTCTAAATCCCACTTGGCACATCTTTTGCTTTTACTTGTCTAGGTGATCGGTATTTACCGATCTTATTTCGTTTTTGGGGGCAGGTATGGCGTCAGATCTTCTG (double strand) [flgK promoter] | no binding
8 | GTGCCTTGTCAAAAGATATAGCCATGTTTGCCTCTACAATTAAGAACTGACCGTTATTAATAACTAAAAAACCGGAAACGCTAAAACACCTATCAGCTATTGACGTTTTAGATTGCAATAAGCAAGCCAAAGTAACTGGAATGTCGTATCACTTCGCTTACTTGAATAAAGATACACCCTGCAGAGGGAGCAGGGCAAAGTCCGACAACAGATTAGCGAGGGGAAACTCGAAATCTCATCTCATATAGACAAAATCGTCGACCTGCAGGCA (double strand) [ΔflgB promoter (RpoN site deleted)] | no binding
9 | TGCCTGCAGGTCGACGATATCTTAATTCGCACCACTTTAGTGCAGACGTAGATCATTTTGGTGCAATCATTTGCACCAAACTAGCATCTAAAAACACAATTCATTGAAATTAATGGAATATTTTTTTTGGCACGGTTTTGGCTTTAGTAAACACAGCATCGATTAATGAAAAGTCAAAAAGATTAATCAATGCCGGGTTCATGAATATTTCATAAGTCGAGCTTTTACCGCTTATTAACACTGGAGGTTATCCAAG (double strand) [VP0121 promoter] | binds
10 | TGCCTGCAGGTCGACGATGTGGAATGTAATGGCCGACGCAAAGAAATGGCAGAGAAGTTGGGCATAAGCCCGCGTACTCTGCGCTACAAACTTGCCAAAATGCGTGACGCGGGTATAGATATTCCGAGTTAGGTTTCACACGCGTAGCCATAAGACAAAAGTGTGAGTAAACTATACAGCTGGCGTCTTATGGCACATAAATTGCTGTGTCAATAATTAGTTTAAATAGATAGTCAAACTTTTGGCTCAGAGGTGATA (double strand) [fliE promoter] | binds
11 | TGCCTGCAGGTCGACGATGTGGAATGTAATGGCCGACGCAAAGAAATGGCAGAGAAGTTGGGCATAAGCCCGCGTACTCTGCGCTACAAACTTGCCAAAATGCGTGACGCGGGTATAGATATTCCGAGTTAGGTTTCACACGCGTAGCCATAAGACAAAAGTGTGAGTAAACTATACAGCTGGCGTCTTGTCAATAATTAGTTTAAATAGATAGTCAAACTTTTGGCTCAGAGGTGATA (double strand) [ΔfliE promoter (RpoN site deleted)] | no binding
12 | TGCCTGCAGGTCGACGATTTAATCAACACGTCACATTCCTAAAATGAATTAAATATTTTCAGCTTTTTAGTCGCCTTGTCTTATAGGGAAACACTAGATGTTTTCGAGAGGAAGGCGGAACACATAAGGTGGAAAATACACTTCCTCTCAAATTTAAATAGTATCGCAAGTCAATGTTTTAAAAGAATATTCAAGTTAGGCACGTATCTTGCGATAAGACATACTTTCAAGGCATAGAGTTACGCCAATTACCAATGAGAGAGGGAGTAAGCTC (double strand) [lafB promoter] | no binding
13 | TGCCTGCAGGTCGACGATGTCCTGTCGAAAGAATTCCTAATAACAGTATCCACTTTGAGGAAATTAGAGTTTTCCCCCTAATTTTTTTGCTTTCCGTAAACCGGAAGTTTGGTTTCCACTCTTGTTTGTAAGTCATTGATAAATATAAATAAAATTTATGGCACGTATCTTGTTTGTATCTTGGCGTATTCGAGCCGACTGTAAGGAAAGATGCATGGCGATCACATTTGAAAATGCTTTAGGTGTACATCCAG (double strand) [flgB2 promoter] | binds
14 | TGCCTGCAGGTCGACGATCGCCGGAACATCGTCATTAATCGTACAAAAAGCAAAATTAAGAAAAATATAAAACAATCAATGGATTGTGCTGTTATTTAGCTTTGAGTCATTATTTTGGCGTTGATTTTGGTACATAGATTGCTTAAGTCGACTAATTATCAACTATACCTAAACTTTTAGGCGAAAGTGGTCGCGTATAAACATTAGACATACGTATTAAAGTGCGTATTCGCGTGACGCTTCAATTCGATTGAGATACCTCGCAGT (double strand) [flhA promoter] | no binding
15 | TGCCTGCAGGTCGACGATGATATTTTATTGGCATGACATTTGCTATTTGTTGCTCAATACTAATCTGGTTGAAGTTAGCACGGACGCACTGCGTAGTATTCATCGCCTATAGATGGCGGAATAAGAATGCTCATTGATAAGTTAATCAGCAGAATCTCCGGCGCTAACTACACTAAGAGATGGAAAAGACTATCCATGTTCATAAATGGAATTGAGC (double strand) [VP1510 promoter] | no binding
16 | TTTTGGACCATCCGTCAGTAAATCAAACCCTTCTGGATGTATCAACTGCAGCGGTAACACTTGCGCCAATTGCGCCAATTTTTGCCCAGATTGACCGCCTATTTTAACCTCTGTCGAGCCATCGCGCTGCTTATTAATGCCGATAGGTAGCTCAAATTGATCCGAGTTCAAAAAACGACCATGAACAAACAGTTCATCACACTCATTTTGAATCACACGACCAGTGAGAGAGCTTTTGAATGAGCGACCATGCCCGAGTAAATAAATCGCTTCTAGGACAATCGTCGACCTGCAGGCA (double strand) [gyrB promoter] | no binding
